# Results: patent US12428446B2, “Peptide compound or pharmaceutically acceptable salt thereof” (Eyebio Korea, priority 2019, dated 2025)
# Primed or numbered codes have the meaning given here. Where no end group is shown, it is not given here. [ ]: non-standard residue; d: D form. The star is where a group is joined. Pro(4-methylene) = C=C1CN[C@H](C(=O)O)C1; Pro(cis-4-F) = O=C(O)[C@@H]1C[C@H](F)CN1; Pro(4,4-F2) = O=C(O)[C@@H]1CC(F)(F)CN1; Asu′ = aspartimide (aminosuccinimide); Hyp = O=C(O)[C@@H]1C[C@@H](O)CN1; Aib = CC(C)(N)C(=O)O; OiPr = CC(C)O*
# Test: Evaluation of dissolution stability (content change on storage in dissolved state)
# Type: physicochemical
# Conditions: 1 mg/1 ml dissolved state, 40° C. and RH 75%
Substance,Day 1 content (%),Day 3 content (%),Day 7 content (%),Initial content (%)
Hyp-Gly-Gln-Leu-Gly-Leu-Ala-Gly ([Hyp]GQLGLAG) [Example 17],96.53,96.69,96.27,96.55
DGLAGP [Example 31],85.08,78.24,60.99,91.42
"4,4-difluoro-Pro-Gly-Gln-Asp-Gly ([Pro(4,4-F2)]GQDG) [Example 43]",86.75,65.09,48.43,99.47
[Hyp]GQ[dD]GLA [Example 64],91.62,86.18,48.37,96.19
cis-4F-Pro-Gly-Gln-Asp-Gly-Leu ([Pro(cis-4-F)]GQDGL) [Example 46],87.32,81.37,62.32,93.29
Hyp-Gly-Gln-Asp (isopropyl ester)-Gly ([Hyp]GQD(OiPr)G) [Example 115],88.57,82.00,71.64,92.71
Hyp-Gly-Leu-Ala-Gly-Pro-Lys ([Hyp]GLAGPK) [Example 27],98.16,98.15,98.16,98.24
Hyp-Gly-Gln-D Asp-Leu ([Hyp]GQ[dD]L) [Example 125],97.15,95.07,88.48,98.28
Hyp-Gly-Gln-Asu-Gly-Leu ([Hyp]GQ[Asu′]GL) [Example 101],86.61,86.38,83.40,88.72
[Hyp]G[dQ]DGLA [Example 63],88.74,81.41,64.20,94.37
Gln-Asu-Gly-Leu-Ala-Gly (Q[Asu′]GLAG) [Example 118],92.71,85.67,79.33,96.15
Hyp-Gly-Gln-Asp-Val-Leu-Ala ([Hyp]GQDVLA) [Example 23],95.25,94.22,90.56,96.40
Hyp-Gly-Gln-D Asp-Gly-Leu ([Hyp]GQ[dD]GL) [Example 61],87.65,83.70,56.36,92.80
QLGLAGPK [Example 18],53.91,36.72,13.41,82.99
Hyp-Gly-Gln-Asp-Gly-Pro-Lys ([Hyp]GQDGPK) [Example 28],98.50,97.37,96.19,99.14
Asu-Gly-Leu-Ala-Gly-Pro-Lys ([Asu′]GLAGPK) [Example 105],54.80,41.83,31.24,89.11
Hyp-Gly-Gln-Glu-Gly-Leu-Ala ([Hyp]GQEGLA) [Example 69],96.94,96.32,95.69,97.12

Substance,Day 1 content (%),Day 3 content (%),Day 7 content (%),Initial content (%)
Hyp-Gly-Gln-His-Gly-Leu-Ala ([Hyp]GQHGLA) [Example 80],97.18,97.13,97.07,98.44
Hyp-Gly-Gln-Glu-Phenyl Gly-Leu-Ala [Example 94],98.77,98.43,98.15,98.59
Hyp-Gly-Gln-Ala-Leu-Leu ([Hyp]GQALL) [Example 123],99.14,98.98,98.86,99.26
Leu-Ala-Gly-Pro-Lys (LAGPK) [Example 25],85.76,81.09,77.40,89.14
Hyp-Gly-Gln-Leu-Leu-Leu-Ala ([Hyp]GQLLLA) [Example 96],97.14,96.64,96.02,98.07
Hyp-Gly-Gln-Asp-Val ([Hyp]GQDV) [Example 21],79.91,77.37,69.10,84.05
Hyp-Gly-Gln-Asp-Ala-Leu ([Hyp]GQDAL) [Example 36],94.13,90.58,85.95,95.40
Hyp-Gly-Gln-Asp-Aib-Leu-Ala ([Hyp]GQD[Aib]LA) [Example 83],95.35,94.70,94.00,95.42
Hyp-Gly-Gln-Asu-Gly-Leu-Ala (isopropyl ester) [Example 113],92.40,85.41,72.35,93.25
Hyp-Gly-Gln-Asu-Gly (isopropyl ester) [Example 109],79.15,69.45,59.07,85.34
Hyp-Gly-Gln-Glu-Gly ([Hyp]GQEG) [Example 67],99.14,98.75,98.07,98.36
Hyp-Gly-Gln-His-Gly-Leu ([Hyp]GQHGL) [Example 82],92.51,85.09,79.04,97.54
Hyp-Gly-Gln-Asp-Ala-Leu-Ala ([Hyp]GQDALA) [Example 39],91.76,88.16,85.50,93.03
[Hyp]G[dQ]DGL [Example 60],92.72,88.92,58.84,97.21
4-methylene-Pro-Gly-Gln-Asp-Gly-Leu ([Pro(4-methylene)]GQDGL) [Example 49],86.53,79.49,60.01,94.35
Hyp-Gly-Gln-Leu-Val-Leu-Ala ([Hyp]GQLVLA) [Example 97],95.01,94.31,94.08,97.08
Hyp-Gly-Gln-Asp-Gly (isopropyl ester) [Example 106],81.47,75.61,68.25,89.54
